Tests used:
ART1 = target: T1, ART1 (Mus musculus, UniProt Q60935); assay: Substrate test for ART1
T1 sequence (Q60935 23-290 limits assumed): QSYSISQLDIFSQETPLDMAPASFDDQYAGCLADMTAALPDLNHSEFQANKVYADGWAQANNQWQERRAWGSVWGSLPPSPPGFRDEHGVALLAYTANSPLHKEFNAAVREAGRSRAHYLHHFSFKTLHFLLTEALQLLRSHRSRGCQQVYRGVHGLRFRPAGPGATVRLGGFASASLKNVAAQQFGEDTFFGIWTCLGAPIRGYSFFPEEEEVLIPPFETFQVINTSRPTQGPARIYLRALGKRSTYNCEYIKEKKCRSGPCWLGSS

arginase = target: T2, arginase (Homo sapiens, UniProt P05089); assay: Incubation with manganese-activated arginase, products by amino acid analysis and MS; type: biochemical; settings: manganese-activated arginase 0.7 U, pH 9.5, 10 minutes, 37° C.
T2 sequence (P05089 1-322): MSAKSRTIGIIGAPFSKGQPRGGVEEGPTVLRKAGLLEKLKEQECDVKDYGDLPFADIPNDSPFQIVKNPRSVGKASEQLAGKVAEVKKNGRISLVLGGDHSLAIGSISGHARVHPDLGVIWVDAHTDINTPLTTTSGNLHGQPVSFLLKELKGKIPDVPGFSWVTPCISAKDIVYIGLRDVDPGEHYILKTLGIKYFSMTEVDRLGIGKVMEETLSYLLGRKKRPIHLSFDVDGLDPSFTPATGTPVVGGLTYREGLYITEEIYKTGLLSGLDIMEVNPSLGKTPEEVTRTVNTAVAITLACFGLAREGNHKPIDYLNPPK
Protocol: Arginase, found predominantly in liver, catalyzes the hydrolysis of arginine to ornithine in the urea cycle. The enzyme has been reported to require free arginine (Jenkinson et al., Comp. Biochem. Physiol. B Biochem. Mol. Biol. 114:107-132, 1996). HNP-1 was tested as a potential substrate for arginase. HNP-1 (1.4 nmol), mono-ADP-ribosylated-HNP-1 (1 nmol), ADP-ribosylarginine (18 μM), and arginine (5 mM) were each incubated with manganese-activated arginase (0.7 U) at pH 9.5 in 200 μl for 10 minutes at 37° C.

[1] = Non-enzymatic conversion of ADP-ribosylarginine to ornithine, HPLC and amino acid analysis; type: physicochemical
[2] = Incubation of HPLC-purified mono- and di-ADP-ribosyl-HNP-1 at pH 7 or 9, products analysed by HPLC/MS; type: physicochemical
Protocol: HNP-1 was incubated overnight at 30° C. with 5 mM NAD in 150 μl of 50 mM potassium phosphate, pH 7.5 and ART1. Reactions were terminated by addition of guanidine HCl to a final concentration of 6 M. Products were separated by HPLC and analyzed by mass spectrometry (MS).
HNP-1 was reduced, cleaved by trypsin, and analyzed by reverse phase chromatography-mass spectrometry as described (Paone et al., Proc. Natl. Acad. Sci. USA 99:8231-8235, 2002), except that the reverse phase column was a Zorbax 300SB-C18, 2.1×50 mm, 3.5 micron, and the mass spectrometer was an Agilent model G1969 with a time of flight detector. Mass spectra were deconvoluted with Agilent software MassHunter version 2, and the fraction of each species was calculated from the areas of the deconvoluted peaks.
To verify that ART1 (or an enzymatic contaminant) was not required for ornithine formation, HPLC-purified mono- and di-modified HNP-1 were incubated for 24 hours at 37° C. at pH 7 or 9 and the reaction products were analyzed by HPLC (FIG. 4, Table 1). Di-ADP-ribosylated-HNP-1 degraded to mono-ADP-ribosylated-HNP-1-ornithine of 3940 molecular mass at pH 7 and the amount was greater at pH 9 (FIG. 4A-D). About 50% of di-ADP-ribosylated-HNP-1 degraded to mono-ADP-ribosylated-HNP-1-ornithine at pH 9, with ADP-ribosylated arginine 14 and ornithine at position 24 or ADP-ribosylated arginine 24 and ornithine at position 14.

N=C(N)NCCC[C@H](N)C(=O)O [arginine]
substrate for ART1 (ART1): served as substrates
ornithine formation by arginase (substrate or not) (arginase): ornithine only in the reaction that contained free arginine
ornithine formation after incubation with free ADP-ribose ([1]; 24 hours, 37° C., 20 mM potassium phosphate pH 9): No ornithine was identified

NC(=NCCC[C@H](N)C(=O)O)N[C@H]1O[C@H](COP(=O)(O)OP(=O)(O)OC[C@H]2O[C@@H](n3cnc4c(N)ncnc43)[C@H](O)[C@@H]2O)[C@@H](O)[C@H]1O [ADP-ribosylarginine]
ornithine formation by arginase (substrate or not) (arginase): ornithine only in the reaction that contained free arginine
product of incubation in acid ([1]; 6N HCl, 37° C., 24 hours): Arginine was cleaved
amount of ornithine generated ([1]; incubation at pH 7 or pH 8): less than at pH 9
maximal amount of ornithine, of initial ADP-ribosylarginine ([1]; pH 9, 24 hours, 37° C., amino acid analysis without prior acid hydrolysis): 21%

NCCC[C@H](N)C(=O)O [ornithine, Ornithine]
substrate for ART1 (ART1): did not

N=C(N)NCCCCN [agmatine]
substrate for ART1 (ART1): served as substrates

ADPR-HNP: HNP-1 ADP-ribosylated on arginine 14
ornithine formation by arginase (substrate or not) (arginase): ornithine only in the reaction that contained free arginine
percent of species ADPR-HNP at the end of the incubation ([2]; pH 7, time 0 h): 100%
percent of species ADPR-HNP-Orn at the end of the incubation ([2]; pH 7, time 0 h): 0%
percent of species Di-ADPR-HNP at the end of the incubation ([2]; pH 7, time 0 h): 0%
percent of species Di-Orn-HNP at the end of the incubation ([2]; pH 7, time 0 h): 0%
percent of species HNP at the end of the incubation ([2]; pH 7, time 0 h): 0%
percent of species HNP-Orn at the end of the incubation ([2]; pH 7, time 0 h): 0%
percent of species ADPR-HNP at the end of the incubation ([2]; pH 7, time 24 h): 82 ± 13%
percent of species ADPR-HNP-Orn at the end of the incubation ([2]; pH 7, time 24 h): 0%
percent of species Di-ADPR-HNP at the end of the incubation ([2]; pH 7, time 24 h): 0%
percent of species Di-Orn-HNP at the end of the incubation ([2]; pH 7, time 24 h): 0%
percent of species HNP at the end of the incubation ([2]; pH 7, time 24 h): 0%
percent of species HNP-Orn at the end of the incubation ([2]; pH 7, time 24 h): 18 ± 13%
percent of species ADPR-HNP at the end of the incubation ([2]; pH 9, time 0 h): 100%
percent of species ADPR-HNP-Orn at the end of the incubation ([2]; pH 9, time 0 h): 0%
percent of species Di-ADPR-HNP at the end of the incubation ([2]; pH 9, time 0 h): 0%
percent of species Di-Orn-HNP at the end of the incubation ([2]; pH 9, time 0 h): 0%
percent of species HNP at the end of the incubation ([2]; pH 9, time 0 h): 0%
percent of species HNP-Orn at the end of the incubation ([2]; pH 9, time 0 h): 0%
percent of species ADPR-HNP at the end of the incubation ([2]; pH 9, time 24 h): 61 ± 9%
percent of species ADPR-HNP-Orn at the end of the incubation ([2]; pH 9, time 24 h): 0%
percent of species Di-ADPR-HNP at the end of the incubation ([2]; pH 9, time 24 h): 0%
percent of species Di-Orn-HNP at the end of the incubation ([2]; pH 9, time 24 h): 0%
percent of species HNP at the end of the incubation ([2]; pH 9, time 24 h): 0%
percent of species HNP-Orn at the end of the incubation ([2]; pH 9, time 24 h): 39 ± 9%
